To fix the notation:
T1: occludin (UniProt Q16625 1-522, limits assumed)
T1 sequence (looked up): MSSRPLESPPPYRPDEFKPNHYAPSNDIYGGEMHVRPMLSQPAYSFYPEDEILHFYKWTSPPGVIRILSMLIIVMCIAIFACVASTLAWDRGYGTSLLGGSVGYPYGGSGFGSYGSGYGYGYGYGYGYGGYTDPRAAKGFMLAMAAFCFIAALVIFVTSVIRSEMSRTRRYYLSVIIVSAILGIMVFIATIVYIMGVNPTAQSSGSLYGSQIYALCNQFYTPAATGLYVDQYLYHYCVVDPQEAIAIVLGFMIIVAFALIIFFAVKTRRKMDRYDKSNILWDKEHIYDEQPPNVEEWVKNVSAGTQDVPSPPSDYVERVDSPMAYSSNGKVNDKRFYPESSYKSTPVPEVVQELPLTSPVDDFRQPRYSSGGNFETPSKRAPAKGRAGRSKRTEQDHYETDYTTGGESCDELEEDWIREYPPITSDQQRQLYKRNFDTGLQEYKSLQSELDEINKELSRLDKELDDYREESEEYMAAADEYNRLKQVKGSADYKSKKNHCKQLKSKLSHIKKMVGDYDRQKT

T2: VE-cadherin of primary human microvascular endothelial cells (HMVECs) (human, UniProt P33151 48-784)
T2 construct: whole, on cells; Endogenous protein, detected by in situ PLA and by co-immunoprecipitation
T2 sequence (looked up): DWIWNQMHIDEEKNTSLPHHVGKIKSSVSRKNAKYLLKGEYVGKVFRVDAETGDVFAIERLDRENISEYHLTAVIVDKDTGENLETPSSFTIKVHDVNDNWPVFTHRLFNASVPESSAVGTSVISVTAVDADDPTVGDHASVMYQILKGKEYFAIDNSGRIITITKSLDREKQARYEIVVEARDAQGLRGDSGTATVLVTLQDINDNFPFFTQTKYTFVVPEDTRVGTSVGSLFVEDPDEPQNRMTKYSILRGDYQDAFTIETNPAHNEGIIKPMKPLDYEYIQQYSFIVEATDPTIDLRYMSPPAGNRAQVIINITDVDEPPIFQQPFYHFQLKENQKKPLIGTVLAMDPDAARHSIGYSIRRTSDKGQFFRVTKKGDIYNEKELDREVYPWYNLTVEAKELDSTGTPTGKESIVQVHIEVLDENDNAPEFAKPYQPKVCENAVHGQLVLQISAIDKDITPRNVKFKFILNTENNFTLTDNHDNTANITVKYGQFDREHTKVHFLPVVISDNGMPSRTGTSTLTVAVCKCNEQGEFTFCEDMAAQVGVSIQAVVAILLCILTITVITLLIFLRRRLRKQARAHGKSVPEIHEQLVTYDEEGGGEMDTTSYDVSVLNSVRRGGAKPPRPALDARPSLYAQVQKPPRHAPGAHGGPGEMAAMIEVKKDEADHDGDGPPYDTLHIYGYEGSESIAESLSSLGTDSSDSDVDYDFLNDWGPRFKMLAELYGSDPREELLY

T3: VE-cadherin (SPR analyte) (UniProt P33151 48-599, limits assumed)
T3 sequence (looked up): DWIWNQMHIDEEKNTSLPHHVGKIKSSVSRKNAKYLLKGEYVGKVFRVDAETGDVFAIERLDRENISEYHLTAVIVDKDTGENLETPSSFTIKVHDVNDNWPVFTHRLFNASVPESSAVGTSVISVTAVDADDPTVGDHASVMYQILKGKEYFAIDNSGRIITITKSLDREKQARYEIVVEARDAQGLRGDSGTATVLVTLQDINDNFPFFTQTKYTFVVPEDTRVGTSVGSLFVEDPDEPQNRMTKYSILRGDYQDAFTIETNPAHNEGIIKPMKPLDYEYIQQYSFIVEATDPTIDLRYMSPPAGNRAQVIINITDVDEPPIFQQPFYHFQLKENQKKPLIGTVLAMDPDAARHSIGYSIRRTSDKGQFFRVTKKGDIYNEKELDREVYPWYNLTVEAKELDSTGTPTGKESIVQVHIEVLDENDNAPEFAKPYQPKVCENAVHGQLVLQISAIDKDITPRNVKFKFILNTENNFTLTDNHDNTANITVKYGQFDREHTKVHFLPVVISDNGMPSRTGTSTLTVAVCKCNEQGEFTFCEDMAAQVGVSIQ

T4: junction protein JAM-C (human, UniProt Q9BX67 32-310)
T4 construct: whole, on cells
T4 sequence (looked up): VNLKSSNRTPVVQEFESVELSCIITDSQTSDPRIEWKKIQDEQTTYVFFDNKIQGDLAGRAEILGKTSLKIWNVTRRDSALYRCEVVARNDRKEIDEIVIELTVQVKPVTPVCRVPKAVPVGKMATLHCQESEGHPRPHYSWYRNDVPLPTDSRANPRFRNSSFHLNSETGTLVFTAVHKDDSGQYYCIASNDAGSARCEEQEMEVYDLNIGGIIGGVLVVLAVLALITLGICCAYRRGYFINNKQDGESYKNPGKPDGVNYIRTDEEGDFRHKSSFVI

B1: junctional adhesion molecule A (JAM-A) (other, UniProt Q9Y624 28-238, looked up)
chain: SVTVHSSEPEVRIPENNPVKLSCAYSGFSSPRVEWKFDQGDTTRLVCYNNKITASYEDRVTFLPTGITFKSVTREDTGTYTCMVSEEGGNSYGEVKVKLIVLVPPSKPTVNIPSSATIGNRAVLTCSEQDGSPPSEYTWFKDGIVMPTNPKSTRAFSNSSYVLNPTTGELVFDPLSASDTGEYSCEARNGYGTPMTSNAVRMEAVERNVGV
B2: VE-cadherin EC3 (other, UniProt P33151 259-372, looked up)
chain: TQTKYTFVVPEDTRVGTSVGSLFVEDPDEPQNRMTKYSILRGDYQDAFTIETNPAHNEGIIKPMKPLDYEYIQQYSFIVEATDPTIDLRYMSPPAGNRAQVIINITDVDEPPIF
notes: domain: EC3
B3: recombinant human cANGPTL4 (C-terminal region of angiopoietin-like 4) (ligand, UniProt Q9BY76 186-406, looked up)
chain: RDCQELFQVGERQSGLFEIQPQGSPPFLVNCKMTSDGGWTVIQRRHDGSVDFNRPWEAYKAGFGDPHGEFWLGLEKVHSITGDRNSRLAVQLRDWDGNAELLQFSVHLGGEDTAYSLQLTAPVAGQLGATTVPPSGLSVPFSTWDQDHDLRRDKNCAKSLSGGWWFGTCSHSNLNGQYFRSIPQQRQKLKKGIFWKTWRGRYYPLQATTMLIQPMAAEAAS
notes: domain: c terminal region; the tag is not specified; also called rh-cANGPTL4; rhcANGPTL4
B4: claudin-5 of primary human microvascular endothelial cells (HMVECs) (other, UniProt O00501 1-218, looked up)
chain: MGSAALEILGLVLCLVGWGGLILACGLPMWQVTAFLDHNIVTAQTTWKGLWMSCVVQSTGHMQCKVYDSVLALSTEVQAARALTVSAVLLAFVALFVTLAGAQCTTCVAPGPAKARVALTGGVLYLFCGLLALVPLCWFANIVVREFYDPSVPVSQKYELGAALYIGWAATALLMVGGCLLCCGAWVCTGRPDLSFPVKYSAPRRPTATGDYDKKNYV
notes: whole, on cells; Endogenous protein, detected by in situ PLA and by co-immunoprecipitation

For experiment [1], the target named is B3. Description: SPR, immobilised cANGPTL4. On the procedure: (§1) SPR was carried out as previously described17,18 using a BIAcore 2000 system (BIAcore, Uppsala, Sweden). Six concentrations (0.16, 0.32, 0.63, 1.25, 2.50 and 5.0 μM) of recombinant integrin β1, first extracellular domain of VE-cadherin (ECD1), extracellular repeat 1 domain of VE-cadherin (EC1), occludin or JAM-A were used. Integrin was expressed in Drosophila S2 cells17 and various extracellular domains of VE-cadherin and claudin-5 purchased from Abnova. Global fitting of the SPR data was performed as previously described to determine the KD. Preinjection or preincubation with the indicated antibodies or preimmune IgG was performed to determine specific interactions. Each sensorgram was corrected by subtracting a sensorgram obtained from a reference flow cell with no immobilized protein. […] Values are mean±S.D. (n=3)
Background: Surface plasmon resonance follows binding to a sensor surface in real time, without labels.

Experiment [2] addresses B3. The experiment can be described thus: SPR, immobilised cANGPTL4 (FIG. 2B). As to the method:
as §1

The target in a further experiment is T1, occludin. Description: SPR, immobilised cANGPTL4. On the procedure: as §1
For the next experiment, the target named is claudin-5 (SPR analyte) (UniProt O00501). Description: SPR (BIAcore 2000), immobilised cANGPTL4, global fit.
Experiment [3] deals with recombinant integrin α5β1 (UniProt P08648). The description is as above.
The target of experiment [4] is T5, integrin α5β1 of primary human microvascular endothelial cells (HMVECs) (human, UniProt P08648 42-1049; P05556 21-798).
T5 construct: whole, on cells; Endogenous protein, detected by in situ PLA and by co-immunoprecipitation from HMVEC lysates
Description: in situ proximity ligation assay on ECs, 250 cells.

Experiment [5] has as its target T2, VE-cadherin of primary human …. The experiment can be described thus: in situ proximity ligation assay on ECs, 250 cells.
For experiment [6], the target named is B4. The experiment can be described thus: in situ proximity ligation assay on ECs, 250 cells.
Experiment [7] deals with integrin β3 (control of the interaction analysis in paragraph 126) (UniProt P05106 27-718, limits assumed). The experiment can be described thus: SPR control (sentence also cites references 16, 17).
Experiment [8] addresses T3, VE-cadherin (SPR analyte). The experiment can be described thus: SPR (BIAcore 2000), immobilised cANGPTL4, global fit. As to the method: as §1
A further experiment addresses T6, Tie1 (human, UniProt P35590 22-1138).
T6 construct: whole, on cells
The experiment can be described thus: co-immunoprecipitation with anti-cANGPTL4 from lysates of rh-cANGPTL4-treated HMVECs (FIG. 5B).

The next experiment concerns the target T7, Tie2 (human, UniProt Q02763 23-1124).
T7 construct: whole, on cells
Described as above.

The target of a further experiment is T8, integrin β3 of HMVECs (human, UniProt P05106 27-788).
T8 construct: whole, on cells
The description is as above.

For a further experiment, the target named is T4, junction protein JAM-C. The experiment is described as above.
Experiment [9] has as its target T2, VE-cadherin of primary human …. Description: kinetic PLA in HMVECs in the presence of anti-integrin antibody, against the zero time point (FIG. 4C). On the procedure:
(§2) (A, B and D, E) Immunofluorescence staining for ZO-1 (A, D) and transendothelial electrical resistance (TER) measurement (B, E) in confluent HMVEC monolayer. […] Treatments were for 3 or 6 h. HMVECs were counterstained with DAPI (blue) for nuclei and phalloidin (red) for actin stress fibers. Scale bar: 40 μm. White arrows indicate endothelial junction lesions. Data (means±S.D.) from 3 independent experiments. *, P<0.05; **, P<0.01. […] Values (means±S.D.) represent mean fold change in the number of interactions compared to the zero time point, as determined from n=3 independent experiments (˜600 HMVECs) using BlobFinder.

Experiment [10] addresses B4. The description is as above. As to the method: as §2
The target in experiment [11] is B3. Description: figure legend: kinetic PLA and co-immunoprecipitation in HMVECs. On the procedure:
Values (means±S.D.) represent mean fold change in the number of interactions compared to the zero time point, as determined from n=3 independent experiments (600 HMVECs) using BlobFinder. […] Protein lysates were collected every 10 minutes (0-180 minutes). Values below each band represent the mean fold change in protein expression level compared with the cognate zero time point (n=3). *, P<0.05; **, P<0.01.

Experimental findings from US20140242084A1 (published 2014) are described below.

T7 sequence (Q02763 23-1124): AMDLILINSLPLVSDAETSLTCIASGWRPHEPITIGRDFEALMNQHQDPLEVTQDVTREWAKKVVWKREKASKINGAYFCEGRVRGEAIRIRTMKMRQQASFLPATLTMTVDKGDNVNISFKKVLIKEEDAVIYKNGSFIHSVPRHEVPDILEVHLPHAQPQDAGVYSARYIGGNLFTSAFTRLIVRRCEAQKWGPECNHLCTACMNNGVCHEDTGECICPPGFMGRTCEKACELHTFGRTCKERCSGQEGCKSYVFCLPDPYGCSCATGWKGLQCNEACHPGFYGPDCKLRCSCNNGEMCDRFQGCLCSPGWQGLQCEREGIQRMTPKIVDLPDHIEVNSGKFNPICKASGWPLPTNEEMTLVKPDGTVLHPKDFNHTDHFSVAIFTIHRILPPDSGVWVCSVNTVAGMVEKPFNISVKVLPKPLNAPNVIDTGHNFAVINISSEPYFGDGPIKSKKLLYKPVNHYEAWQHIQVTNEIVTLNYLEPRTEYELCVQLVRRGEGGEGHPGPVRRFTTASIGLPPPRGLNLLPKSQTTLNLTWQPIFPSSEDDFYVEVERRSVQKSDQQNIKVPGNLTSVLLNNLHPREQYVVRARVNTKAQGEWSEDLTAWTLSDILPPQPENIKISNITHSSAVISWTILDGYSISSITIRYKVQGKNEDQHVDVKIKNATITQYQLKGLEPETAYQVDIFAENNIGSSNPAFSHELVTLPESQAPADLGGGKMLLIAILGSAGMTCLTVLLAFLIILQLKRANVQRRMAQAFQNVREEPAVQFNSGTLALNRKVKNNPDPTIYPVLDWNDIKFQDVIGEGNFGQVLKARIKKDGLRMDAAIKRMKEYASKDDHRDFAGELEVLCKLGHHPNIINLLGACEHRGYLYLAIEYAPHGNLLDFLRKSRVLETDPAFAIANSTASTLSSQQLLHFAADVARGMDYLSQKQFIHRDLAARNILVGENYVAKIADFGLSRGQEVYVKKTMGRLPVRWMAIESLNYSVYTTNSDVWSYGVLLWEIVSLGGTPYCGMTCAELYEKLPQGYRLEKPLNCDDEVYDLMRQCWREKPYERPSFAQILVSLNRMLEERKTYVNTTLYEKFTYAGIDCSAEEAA
Sequence of integrin β3 (control of the interaction analysis in paragraph 126) (P05106 27-718 limits assumed): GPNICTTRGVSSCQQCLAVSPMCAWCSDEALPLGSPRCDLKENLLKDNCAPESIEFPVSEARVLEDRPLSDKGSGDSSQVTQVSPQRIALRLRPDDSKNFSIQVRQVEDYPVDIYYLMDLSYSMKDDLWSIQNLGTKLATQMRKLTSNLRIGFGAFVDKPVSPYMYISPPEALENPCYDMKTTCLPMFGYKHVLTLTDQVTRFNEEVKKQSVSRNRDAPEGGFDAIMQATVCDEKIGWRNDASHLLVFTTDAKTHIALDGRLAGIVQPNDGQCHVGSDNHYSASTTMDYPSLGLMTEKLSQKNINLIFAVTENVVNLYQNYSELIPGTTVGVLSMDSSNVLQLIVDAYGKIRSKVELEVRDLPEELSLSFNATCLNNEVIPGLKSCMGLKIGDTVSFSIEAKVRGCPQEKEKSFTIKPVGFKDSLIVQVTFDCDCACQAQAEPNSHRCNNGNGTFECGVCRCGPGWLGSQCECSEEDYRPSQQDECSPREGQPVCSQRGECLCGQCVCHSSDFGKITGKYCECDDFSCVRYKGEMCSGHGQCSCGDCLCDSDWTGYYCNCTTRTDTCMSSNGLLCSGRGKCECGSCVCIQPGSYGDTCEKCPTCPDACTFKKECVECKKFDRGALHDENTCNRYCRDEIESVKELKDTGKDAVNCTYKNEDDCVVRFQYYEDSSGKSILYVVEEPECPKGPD
T5 sequence (P08648 42-1049, chain 1 of 2): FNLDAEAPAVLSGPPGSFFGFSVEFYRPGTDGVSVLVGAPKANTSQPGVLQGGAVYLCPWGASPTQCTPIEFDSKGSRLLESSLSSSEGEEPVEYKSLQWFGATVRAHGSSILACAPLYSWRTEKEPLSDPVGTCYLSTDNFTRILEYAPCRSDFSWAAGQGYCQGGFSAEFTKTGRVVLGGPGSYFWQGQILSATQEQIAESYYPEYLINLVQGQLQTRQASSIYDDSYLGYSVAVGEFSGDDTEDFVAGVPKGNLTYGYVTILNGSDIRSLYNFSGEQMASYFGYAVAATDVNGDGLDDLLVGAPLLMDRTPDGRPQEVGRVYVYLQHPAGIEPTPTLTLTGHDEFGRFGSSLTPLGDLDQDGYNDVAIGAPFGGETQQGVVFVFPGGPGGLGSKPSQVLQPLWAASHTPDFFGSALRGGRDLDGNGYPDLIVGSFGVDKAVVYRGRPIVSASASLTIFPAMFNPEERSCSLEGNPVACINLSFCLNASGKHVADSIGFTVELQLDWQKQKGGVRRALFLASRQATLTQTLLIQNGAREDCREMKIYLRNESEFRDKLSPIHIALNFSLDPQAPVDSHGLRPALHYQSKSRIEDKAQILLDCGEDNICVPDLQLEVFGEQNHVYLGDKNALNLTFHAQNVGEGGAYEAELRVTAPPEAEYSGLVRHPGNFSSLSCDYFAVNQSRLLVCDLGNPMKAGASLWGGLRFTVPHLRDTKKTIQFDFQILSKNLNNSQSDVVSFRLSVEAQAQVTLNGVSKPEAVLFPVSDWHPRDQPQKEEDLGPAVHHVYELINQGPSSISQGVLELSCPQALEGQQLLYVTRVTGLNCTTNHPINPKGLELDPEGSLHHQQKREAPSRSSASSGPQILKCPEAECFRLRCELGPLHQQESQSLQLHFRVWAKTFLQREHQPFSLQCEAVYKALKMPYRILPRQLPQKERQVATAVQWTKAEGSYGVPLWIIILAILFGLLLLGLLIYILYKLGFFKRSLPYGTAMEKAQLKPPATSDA
T5 sequence (P05556 21-798, chain 2 of 2): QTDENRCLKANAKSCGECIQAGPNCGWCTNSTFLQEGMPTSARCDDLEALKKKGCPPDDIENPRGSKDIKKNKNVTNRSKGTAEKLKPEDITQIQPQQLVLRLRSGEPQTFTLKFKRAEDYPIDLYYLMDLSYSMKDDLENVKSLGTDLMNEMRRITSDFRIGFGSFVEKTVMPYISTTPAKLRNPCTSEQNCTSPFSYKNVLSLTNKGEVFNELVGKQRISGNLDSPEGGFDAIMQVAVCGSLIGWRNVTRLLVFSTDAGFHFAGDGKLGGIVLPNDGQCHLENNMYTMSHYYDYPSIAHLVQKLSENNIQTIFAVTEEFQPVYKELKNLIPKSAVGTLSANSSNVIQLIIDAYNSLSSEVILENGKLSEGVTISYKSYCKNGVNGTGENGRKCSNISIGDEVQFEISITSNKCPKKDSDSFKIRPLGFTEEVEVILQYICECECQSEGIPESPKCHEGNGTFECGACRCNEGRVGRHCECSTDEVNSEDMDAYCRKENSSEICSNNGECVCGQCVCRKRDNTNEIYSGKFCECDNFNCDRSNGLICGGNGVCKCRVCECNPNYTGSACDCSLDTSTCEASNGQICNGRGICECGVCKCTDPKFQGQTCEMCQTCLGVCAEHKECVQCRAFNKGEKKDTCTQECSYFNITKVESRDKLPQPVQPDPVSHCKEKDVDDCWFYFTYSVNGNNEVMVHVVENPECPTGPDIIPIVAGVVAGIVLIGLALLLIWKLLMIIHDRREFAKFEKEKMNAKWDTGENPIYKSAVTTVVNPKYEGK
T8 sequence (P05106 27-788): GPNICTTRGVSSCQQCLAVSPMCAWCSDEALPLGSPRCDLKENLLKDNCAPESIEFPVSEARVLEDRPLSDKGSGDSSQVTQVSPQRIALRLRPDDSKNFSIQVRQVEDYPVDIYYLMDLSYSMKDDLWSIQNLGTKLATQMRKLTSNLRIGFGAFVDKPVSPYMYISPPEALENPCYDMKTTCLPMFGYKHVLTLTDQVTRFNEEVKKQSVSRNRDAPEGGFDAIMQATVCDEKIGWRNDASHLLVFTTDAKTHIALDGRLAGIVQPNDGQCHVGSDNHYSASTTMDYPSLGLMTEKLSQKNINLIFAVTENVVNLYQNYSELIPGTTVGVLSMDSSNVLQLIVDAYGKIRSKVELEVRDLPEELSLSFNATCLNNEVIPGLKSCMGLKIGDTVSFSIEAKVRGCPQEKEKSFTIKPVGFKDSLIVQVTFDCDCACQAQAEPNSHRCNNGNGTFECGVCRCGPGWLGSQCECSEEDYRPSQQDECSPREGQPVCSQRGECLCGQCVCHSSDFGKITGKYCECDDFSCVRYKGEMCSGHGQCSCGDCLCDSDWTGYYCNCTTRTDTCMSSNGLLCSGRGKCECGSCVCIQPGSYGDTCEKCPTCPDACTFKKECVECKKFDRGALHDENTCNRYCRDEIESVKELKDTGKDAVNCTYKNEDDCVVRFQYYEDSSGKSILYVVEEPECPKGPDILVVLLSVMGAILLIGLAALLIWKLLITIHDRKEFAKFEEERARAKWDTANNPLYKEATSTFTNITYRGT

Take B1: the binding result in experiment [1] is listed as “no binding (tested: 0.16-5.0 µM)”.
As to B2, the binding result in experiment [2] is “no binding”.
Take B3: the binding result in the experiment with occludin was “no binding (tested: 0.16-5.0 µM)”; in experiment [7], “no binding”; in the experiment with Tie1, “no binding”; in the experiment with Tie2, “no binding”; in the experiment with integrin β3 of HMVECs, “no binding”; with junction protein JAM-C it was “no binding”. Moreover, the Kd with claudin-5 (SPR analyte) amounted to 58.7 nM; in [3] it was 12.6 nM; in [8], 112 nM. The PLA spots/cell in [4] came to 22.5 PLA spots/cell; in experiment [5], 16.4 PLA spots/cell; in experiment [6] it was 12.3 PLA spots/cell. Further, the “mean fold change in the interactions” value in experiment [9] and in experiment [10] was 0.4 fold throughout.
Take B4: the binding result in experiment [11] is listed as “binds”.

Broadly, the Kd is the concentration at which binding is half-saturated.
